Assay results from article PMC11022410, “Synthesis and characterization of water-soluble C60–peptide conjugates” (Beilstein Journal of Organic Chemistry, 2024).

Key:
[1] = assay type: physicochemical; settings: for Solubility in Milli-Q water (pH 7.0): from lyophilized solid, Milli-Q water pH 7.0, visual (transparent solution), also with sonication, 5b purified, 5c crude; for Solubilizing solvents (Table S1): list of the solvents used to solubilize the molecules; for Solubility in acidic eluent used for HRESIMS: mixture of MeOH and water containing 0.1% formic acid
Protocol: The water solubility of C60–peptide conjugates 5a–c was tested after the removal of any remaining solvent traces by lyophilization. […]
Solubility of C60–oligopeptides 5a–c
Table S1. List of the solubilizing solvents for compounds 5a-5c. […]

[2] = Photoinduced 1O2 generation by ESR spin trapping with 4-oxo-TEMP; settings: green LED 527 nm, 1 min or 10 min; PS 40 μM, 4-oxo-TEMP 80 mM, 60 mM phosphate buffer pH 7.0, O2-bubbled, 296 K
Protocol: To preliminarily evaluate the synthesized C60–oligo-Lys (5a) as a PS, generation of singlet oxygen was measured by the ESR spin trapping method under irradiation of visible light (527 nm green LED). 4-Oxo-TEMP was used as a spin trapping reagent to form an adduct with ^1O2, i.e., 4-oxo-TEMPO, which was observed by ESR (Figure 7b).
Figure 7 a) X-band ESR spectra of the 4-oxo-TEMP adduct with ^1O2 generated by C60–oligo-Lys (5a) and rose bengal (RB), respectively, in aqueous solutions under irradiation with a green LED lamp (527 nm) for 1 min or 10 min. PS: 40 μM, 4-oxo-TEMP: 80 mM, in 60 mM phosphate buffer (pH 7.0). Measurement conditions: temperature 296 K, microwave frequency 10.03 GHz, microwave power 10 mW, receiver gain 5.0 × 10^4, modulation amplitude 1.00 G, modulation frequency 100 KHz, sweep time 83.89 s, number of scans: 1. b) Scheme for the photoinduced ^1O2 generation by C60 and reaction with spin trapping reagent 4-oxo-TEMP to form 4-oxo-TEMPO.
Detection of photoinduced 1O2 generation by ESR spin trapping
ESR measurements were carried out on a Bruker spectrometer equipped with a microwave bridge X-band ER. […]
1O2 generation was detected through the 1O2 adduct of 4-oxo-TEMP generated in an aqueous solution of C60−oligo-Lys (5a) and rose bengal as reference under irradiation by a green LED (527 nm). […]

Row | SMILES | Solubility in Milli-Q water (pH 7.0) [1] | Solubilizing solvents (Table S1) [1] | Solubility in nonpolar solvents ([1]; most nonpolar solvents, including toluene and CH2Cl2) | Solubility in other polar solvents ([1]; other polar solvents, including MeOH and DMSO) | Solubility in acidic eluent used for HRESIMS [1] | Solubility in polar and nonpolar solvents ([1]; most polar and nonpolar solvents) | Solubility over the tested pH value range ([1]; tested pH value range 4.0–9.2) | 1O2 generation under visible light irradiation (ESR signal of 4-oxo-TEMPO) [2]
1 | NCCCC[C@H](NC(=O)[C@H](CCCCN)NC(=O)[C@H](CCCCN)NC(=O)[C@H](CCCCN)NC(=O)[C@H](CCCCN)NC(=O)CCCNC(=O)CC(CC(=O)NCCCC(=O)N[C@@H](CCCCN)C(=O)N[C@@H](CCCCN)C(=O)N[C@@H](CCCCN)C(=O)N[C@@H](CCCCN)C(=O)N[C@@H](CCCCN)C(=O)O)N1CC23c4c5c6c7c8c9c(c%10c%11c2c2c4c4c%12c5c5c6c6c8c8c%13c9c9c%10c%10c%11c%11c2c2c4c4c%12c%12c5c5c6c8c6c8c%13c9c9c%10c%10c%11c2c2c4c4c%12c5c6c5c8c9c%10c2c45)C73C1)C(=O)O (stereo partly shown) [5a, C60–oligo-Lys] | immediately and thoroughly solubilized | water (pH 4.0–9.2), MeOH, DMSO | not highly soluble | slightly soluble | – | – | – | –
2 | O=C(O)CC[C@H](NC(=O)[C@H](CCC(=O)O)NC(=O)[C@H](CCC(=O)O)NC(=O)[C@H](CCC(=O)O)NC(=O)[C@H](CCC(=O)O)NC(=O)CCCNC(=O)CC(CC(=O)NCCCC(=O)N[C@@H](CCC(=O)O)C(=O)N[C@@H](CCC(=O)O)C(=O)N[C@@H](CCC(=O)O)C(=O)N[C@@H](CCC(=O)O)C(=O)N[C@@H](CCC(=O)O)C(=O)O)N1CC23c4c5c6c7c8c9c(c%10c%11c2c2c4c4c%12c5c5c6c6c8c8c%13c9c9c%10c%10c%11c%11c2c2c4c4c%12c%12c5c5c6c8c6c8c%13c9c9c%10c%10c%11c2c2c4c4c%12c5c6c5c8c9c%10c2c45)C73C1)C(=O)O (stereo partly shown) [5b, C60–oligo-Glu] | did not produce transparent solutions | 25 mM TRIS buffer (pH > 8.3), 2% NaOD in D2O (pH 13.7) | – | – | insolubility | – | – | –
3 | N=C(N)NCCC[C@H](NC(=O)[C@H](CCCNC(=N)N)NC(=O)[C@H](CCCNC(=N)N)NC(=O)[C@H](CCCNC(=N)N)NC(=O)[C@H](CCCNC(=N)N)NC(=O)CCCNC(=O)CC(CC(=O)NCCCC(=O)N[C@@H](CCCNC(=N)N)C(=O)N[C@@H](CCCNC(=N)N)C(=O)N[C@@H](CCCNC(=N)N)C(=O)N[C@@H](CCCNC(=N)N)C(=O)N[C@@H](CCCNC(=N)N)C(=O)O)N1CC23c4c5c6c7c8c9c(c%10c%11c2c2c4c4c%12c5c5c6c6c8c8c%13c9c9c%10c%10c%11c%11c2c2c4c4c%12c%12c5c5c6c8c6c8c%13c9c9c%10c%10c%11c2c2c4c4c%12c5c6c5c8c9c%10c2c45)C73C1)C(=O)O (stereo partly shown) [5c, C60–oligo-Arg] | did not produce transparent solutions | insoluble in most solvents | – | – | slightly soluble | not soluble in most polar and nonpolar solvents | remained insoluble | –
4 | O=C([O-])c1c(Cl)c(Cl)c(Cl)c(Cl)c1-c1c2cc(I)c(=O)c(I)c-2oc2c(I)c([O-])c(I)cc12.[Na+].[Na+] [rose bengal] | – | – | – | – | – | – | – | three peaks corresponding to 4-oxo-TEMPO were observed
